Test results published in US9512196B2, “Short-form human MD-2 as a negative regulator of toll-like receptor 4 signaling” (Cedars-Sinai Medical Center, priority 2008, dated 2016).

T1: MD-2 (Homo sapiens, UniProt Q9Y6Y9)
T1 construct: expressed in transfected cells; host or cells: HEK293
T1 sequence (Q9Y6Y9 19-160): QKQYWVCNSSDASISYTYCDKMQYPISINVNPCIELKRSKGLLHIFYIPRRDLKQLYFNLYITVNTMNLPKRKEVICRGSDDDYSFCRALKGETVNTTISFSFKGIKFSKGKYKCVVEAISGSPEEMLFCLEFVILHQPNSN


What was measured:
MD-2 = biological target: T1, MD-2; experiment: Co-immunoprecipitation with Flag-tagged wild-type MD-2 in HEK293 cells; format: binding; details: Myc-tagged protein with Flag-tagged MD-2, co-immunoprecipitation
Experimental: (A) HEK293 cells were transiently transfected with plasmids encoding for Flag-tagged MD-2 (lanes 1-4) in combination with either a Myc-tagged MD-2 (lanes 1 and 3) or a Myc-tagged MD-2s (lanes 2 and 4) expressing plasmid. Co-immunoprecipitation experiments were then performed using an anti-Flag antibody (lanes 3-4) or an IgG isotype control antibody (lane 1-2). Samples were fractionated by SDS-PAGE and immunoblotting with an anti-Myc antibody was performed. (B) Structural analysis of MD-2. Structural features representing the TLR4 binding sites (red); the ligand contacts (dark blue); the ligand binding pocket (light blue) and the TLR4 secondary contacts (pink) are illustrated. The residues deleted in MD-2s (yellow) are also shown. (C) HEK293 cells were transiently transfected with plasmids encoding for Myc-tagged MD-2 (lanes 3 and 4) or a Myc-tagged MD-2s (lanes 5 and 6) expressing plasmid and treated with LPS-biotin as indicated. Co-immunoprecipitation experiments were then performed using an anti-Myc antibody. […]
HEK 293 cells were seeded into 100 mm dishes (1.5×10^6) 24 h prior to transfection. […] For immunoblotting, primary antibodies were detected using horseradish peroxidase-conjugated secondary antibodies, followed by enhanced chemiluminescence (Amersham Biosciences). […]

TLR4 [1] = biological target: T2, TLR4 (Homo sapiens, UniProt O00206); experiment: Co-immunoprecipitation with Flag-tagged TLR4 in HEK293 cells; format: binding; details: Myc-tagged protein, anti-Flag co-immunoprecipitation
T2 construct: expressed in transfected cells; host or cells: HEK293
Experimental: (§1) (A) Cells stably expressing CFP-tagged TLR4 were transiently transfected with plasmids encoding wild-type MD-2 (upper panels) or MD-2s (lower panels). 24 h later, cells were incubated with an anti-Myc antibody and cross-liked with Alexa 647-conjugated anti-mouse polyclonal secondary antibody. (B) HEK293 cells were transiently transfected with a plasmid encoding for Flag-tagged TLR4 (lane 2) and cotransfected with either a Myc-tagged MD-2 (lane 3) or a Myc-tagged MD-2s (lanes 1 and 4) expressing plasmid. Co-immunoprecipitation experiments were then performed using an anti-Flag antibody (lanes 2-4) or an IgG isotype control antibody (lane 1). Samples were fractionated by SDS-PAGE and immunoblotting with an anti-Myc antibody was performed. Experiment shown is representative of 4 separate experiments.
HEK 293 cells were seeded into 100 mm dishes (1.5×10^6) 24 h prior to transfection. Transfections were performed according to the manufacturer's instructions using lipofectamine. […] For immunoblotting, primary antibodies were detected using horseradish peroxidase-conjugated secondary antibodies, followed by enhanced chemiluminescence (Amersham Biosciences).
To address this possibility, co-localization studies to examine the cellular distribution of MD-2s with respect to TLR4 were performed. […] Next whether MD-2s is physically associated with TLR4 was assessed. […]

TLR4 [2] = biological target: T2, TLR4; experiment: Confocal co-localization with CFP-tagged TLR4 in HEK293 cells; format: cell-based; details: confocal analysis, anti-Myc staining
Experimental: as §1
To address this possibility, co-localization studies to examine the cellular distribution of MD-2s with respect to TLR4 were performed. HEK293 cells stably expressing TLR4CFP were subsequently transiently transfected with a plasmid encoding either MD-2 (FIG. 4A, upper panel) or MD-2s (FIG. 4A, lower panel) and stained with an anti-Myc antibody. […] Next whether MD-2s is physically associated with TLR4 was assessed. […]

TLR4 [3] = biological target: T2, TLR4; experiment: IL-8 secretion by HEK293 TLR4 reporter cells after LPS; format: cell-based
Experimental: (A) HEK-293 cells stably transfected with TLR4 and a NF-κB reporter gene were treated with supernatants containing either MD-2 or MD-2s as described in the examples herein. Cells were left untreated or stimulated with LPS for 24 h. Mean relative stimulation of luciferase activity±S.D. for a representative experiment, each performed in triplicate, is shown. (B) HEK-293 cells stably transfected with TLR4 and a NF-κB reporter gene were transiently transfected with plasmids encoding for either MD-2, MD-2s or CD14 as shown. 24 h later, cells were left untreated or stimulated with LPS (250 ng/ml) for 6 h. Mean relative stimulation of luciferase activity±SD for a representative experiment, each performed in triplicate, is shown. (C) and (D) Supernatants were also collected and measured for IL-8 secretion.
The requirement for MD-2s in LPS mediated NF-κB activation was assessed. It has been shown that the soluble form of wild-type MD-2 confers LPS responsiveness to cells expressing TLR4; therefore, it was investigated if soluble MD-2s was also bioactive. Culture supernatants were obtained from HEK293 cells transiently expressing control vector, MD-2, or MD-2s, and incubated with HEK293 cells stably transfected with TLR4 and an NF-κB-dependent luciferase reporter gene. […]

T2 sequence (O00206 24-839): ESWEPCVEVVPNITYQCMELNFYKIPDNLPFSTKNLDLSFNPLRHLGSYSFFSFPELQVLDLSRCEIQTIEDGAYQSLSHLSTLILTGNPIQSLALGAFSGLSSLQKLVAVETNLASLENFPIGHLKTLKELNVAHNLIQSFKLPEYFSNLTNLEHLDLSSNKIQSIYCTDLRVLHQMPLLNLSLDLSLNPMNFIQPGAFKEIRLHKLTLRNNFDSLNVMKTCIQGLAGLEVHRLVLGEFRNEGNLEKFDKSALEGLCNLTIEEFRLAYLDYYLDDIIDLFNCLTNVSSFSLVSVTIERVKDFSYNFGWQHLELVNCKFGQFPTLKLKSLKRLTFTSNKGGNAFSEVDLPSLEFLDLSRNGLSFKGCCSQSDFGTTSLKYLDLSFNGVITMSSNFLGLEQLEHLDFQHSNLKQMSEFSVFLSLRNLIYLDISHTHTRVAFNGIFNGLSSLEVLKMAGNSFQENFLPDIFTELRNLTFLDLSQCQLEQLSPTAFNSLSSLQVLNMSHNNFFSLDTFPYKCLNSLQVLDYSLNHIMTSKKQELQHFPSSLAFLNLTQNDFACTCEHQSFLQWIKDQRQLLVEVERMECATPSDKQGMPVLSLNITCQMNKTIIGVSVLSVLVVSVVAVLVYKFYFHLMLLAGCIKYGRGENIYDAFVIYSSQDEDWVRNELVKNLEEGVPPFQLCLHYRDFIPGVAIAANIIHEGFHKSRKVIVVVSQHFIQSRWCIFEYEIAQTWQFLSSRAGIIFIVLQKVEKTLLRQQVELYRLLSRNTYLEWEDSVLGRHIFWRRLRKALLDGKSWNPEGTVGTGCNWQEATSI

Molecule | Interaction with wild-type MD-2 (MD-2) | Interaction with TLR4 (TLR4 [1]) | Cellular distribution with respect to TLR4 (TLR4 [2]) | LPS-dependent IL-8 secretion conferred by soluble protein (TLR4 [3]; culture supernatants added to HEK293 TLR4 reporter cells) | LPS-mediated IL-8 secretion on transient expression (TLR4 [3]; plasmid transfected with CD14 into HEK293 TLR4/NF-κB reporter cells)
MD-2: full-length human wild-type MD-2, co-receptor of TLR4 [reference compound] | can homodimerise | – | – | – | –
MD-2s: alternatively spliced isoform of human MD-2 lacking exon 2, with D38G substitution; expressed and secreted protein sequences in Table 1 (protein, listed as Homo sapiens) chain 1: MLPFLFFSTLFSSIFTEAQKQYWVCNSSDASISYTYCGRDLKQLYFNLYITVNTMNLPKRKEVICRGSDDDYSFCRALKGETVNTTISFSFKGIKFSKGKYKCVVEAISGSPEEMLFCLEFVILHQPNSN chain 2: EAQKQYWVCNSSDASISYTYCGRDLKQLYFNLYITVNTMNLPKRKEVICRGSDDDYSFCRALKGETVNTTISFSFKGIKFSKGKYKCVVEAISGSPEEMLFCLEFVILHQPNSN | associates with wild-type MD-2 | direct interaction between MD-2s and TLR4 was observed | same cellular distribution | could not confer LPS responsiveness | unable to induce
